Patent publication US20090017017A1 (SYMPHOGEN A S, published 2009)
Where a chain is given by its changes, count along the chain named.

T1: Rhesus D antigen (human, UniProt Q02161 2-417)
T1 construct: whole, on cells; Presented on RhD(+) erythrocytes; also called RhD; RhD antigen
T1 sequence (looked up): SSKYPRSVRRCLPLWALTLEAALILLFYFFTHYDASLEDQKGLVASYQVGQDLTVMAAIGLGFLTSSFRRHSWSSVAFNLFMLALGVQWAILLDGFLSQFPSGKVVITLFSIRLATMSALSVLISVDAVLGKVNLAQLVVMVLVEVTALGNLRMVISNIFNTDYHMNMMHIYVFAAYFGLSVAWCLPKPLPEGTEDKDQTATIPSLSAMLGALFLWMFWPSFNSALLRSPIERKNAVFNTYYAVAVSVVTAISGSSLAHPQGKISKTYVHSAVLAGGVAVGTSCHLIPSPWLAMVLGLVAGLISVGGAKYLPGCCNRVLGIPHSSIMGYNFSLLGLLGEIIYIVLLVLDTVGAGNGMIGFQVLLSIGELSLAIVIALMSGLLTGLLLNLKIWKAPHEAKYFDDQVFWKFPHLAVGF

B1: RhD206.160C06 (Fab, V domains shown)
VH: QVQLVESGGGVVQPGRSLRLSCAASGFTFSSYGMHWVRQAPGKGLEWVAIIWFDGSNKYYADSVKGRFTISRDNSKNTLYLQINSLRAEDTAVYYCAKEHGYYSSSWYRNYYYYAMDVWGQGTTVTVSS
VL: DIQMTQSPSSLSASVGDRVTITCRASQSIRRYLNWYQKKPGKAPKLLIYAASSLQSGVPSRFSGSGSGTDFTLTISSLQPEDFATYYCQQSYRTQGLTFGGGTKVEIKR
notes: Tested as Fab in E. coli periplasmic extract (VH on human gamma 1 CH1, vector Em351)
B2: RhD294.119E10 (Fab, V domains shown)
VH: QVQLVESGGGVVQPGRSLRLSCAASGFSFSNYGMHWVRQAPGKGLEWVAVISYDGSEKYYADSVKGRFTISRDNSKKTLYLQMNSLRAEDTAMYYCKNKVGATRRAVVAVDIWGQGTMVTVSS
VL: EIVLTQSPGTLSLSPRERATLSCRANQYVNSNHLAWYQQKPGQAPRLLLYGASRRATGIPDRFSGSGTGTDFTLIISRLEPEDFAVYFCQLYDHSRPMYTFGQGTKLEIKR
notes: as for B1
B3: RhD243.109A05 (Fab, V domains shown)
VH: QVQLVESGGGVVQPGRSLRLSCAASGFTFSTYGMHWVRQAPGKGLEWVAVIWYDGSQKYYVDSVKGRFTISRDNSKNTLYLQMNSLRAEDTAVYYCAREVAVRGVIRYYYGMDVWGQGTTVTVSS
VL: DIQLTQSPSSLAASVGDRVIITCRSGQGIRNYLNWYQQKPGKAPKLLIYAASFLQSGVPSRFSGSGSGTDFTLTISSLQPEDFATYNCQQSYSDPWTFGQGTKVEIKR
notes: as for B1
B4: RhD293.109A09 (Fab, V domains shown)
VH: B3 VH with Q1E, S30N, Q57N, V61A, G111A
VL: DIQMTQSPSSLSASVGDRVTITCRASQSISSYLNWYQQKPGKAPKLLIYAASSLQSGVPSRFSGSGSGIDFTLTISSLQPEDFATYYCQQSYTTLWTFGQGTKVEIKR
notes: as for B1
B5: RhD295.119B11 (Fab, V domains shown)
VH: QVQLVESGGGLVQPGGSLRLSCVGSGFTFRSFDMNWVRQAPGKGLEWISYINSRGNTRYYVDSVKGRFTISRDNAKNSLYLQMNSLRAEDTAVYYCARDLYGDYDPKSYYYYGMDVWGQGTMVTVSS
VL: EIVLTQSPGTLSLSPGERATLSCRASQSFSSGYLAWYQQKPGQAPRLLIYGASNRATGIPDRFSGSGSGTDFTLTISRLEPEDFAVYYCQHYGSSPPITFGQGTRLEIKR
notes: as for B1
B6: RhD240.125A09 (Fab, V domains shown)
VH: QLQLQESGPGLVKPSGTLSLTCAVSGGSMRSSNWWTWVRQPPGKGLEWIGEIHHGGSTNYNPSLQSRVTISVDKSKNRFSLKLSSVTAADTAVYHCARGRSYYDSSGHSFRGLVPFDIWGQGTMVTVSS
VL: DIQMTQSPSTLSASVGDRVTITCRASQSISSWLAWYQQKPGKAPKLLVYKTSSLEGGVPSRFSGSGSGTEFSLTIFRLQSDDFATYYCQQYNSFPYTFGQGTKLEFTR
notes: as for B1
B7: RhD245.164E06 (Fab, V domains shown)
VH: EVQLVQSGGGVVQPGRSPRLSCAASGFTFSSYGMHWVRQAPGKGLEWVAFIWYDGSNKYYADSVKGRFTISRDNSKNTLYLQMNSLRAEDTAVYYCARDLRNHVFWSGYSTSFDYWGQGTLVTVSS
VL: DIQMTQSPSSLSASVGDGITITCRASQSVRSYLNWYQQKPGKAPELLIYAASRLQSGVPSRFSGSGSGTDFTLTISSLQPEDFATYYCQHSYSTPVTFGQGTKVEVKR
notes: as for B1
B8: RhD208.179B11 (Fab, V domains shown)
VH: EVQLVESGGGVVQPGRSLRLSCAASGFTFRTSAMHWVRQAPGKGLEWVAVIWYDGSNKYYADSVKGRFTISRDNSKNTLYLQMNSLRAEDTAVYYCAREMVSYSSSWYRRYYYYNMDVWGKGTTVTVSS
VL: QAVVTQEPSLTVSPGGTVTLTCASSTGSVTSGYYPNWFQQKPGQAPRPLISGTSNKLSWTPARFSGSLLGGKAALTVSGVQPEDEAVYYCLLYYGVPQPVVFGGGTKLTVLG
notes: as for B1
B9: RhD246.179B10 (Fab, V domains shown)
VH: B8 VH with S7T, R30S, T31S, S32Y, A33G
VL: LSSELTQDPAVSVTLGQTVRITCQGDSLRHSYASWYQQKPGQAPILVIYGKNIRPSGIPDRFSGSTSGNTASLTITGAQAEDGGDYYCNSRDTSTDHYVFGDGTRVTVVG
notes: as for B1
B10: RhD242.181A03 (Fab, V domains shown)
VH: B8 VH with R30S, T31N, S32H, A33G, V101A, N115V
VL: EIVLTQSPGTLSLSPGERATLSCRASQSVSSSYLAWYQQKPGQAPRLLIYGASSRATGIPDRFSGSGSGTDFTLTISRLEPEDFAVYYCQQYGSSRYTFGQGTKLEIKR
notes: as for B1
B11: RhD239.126F09 (Fab, V domains shown)
VH: QVQLVESGGGVVQPGTSLRLSCAASGFTFRTYGMHWVRQAPGKGLEWVAYIWYDGSNKYYADSVKGRFTISRDNSKSTLNLQMNSLRAEDTAVYYCAREIASRGYSRYLYYFDSWGQGTLVTVSS
VL: DIQLTQSPSSLSASVGDRVTITCRASQSISSYLNWYQQKPGKAPKLLISAASSLQSGVPSRFSGSGSGTDFTLTISSLQREDYATYYCQQSYSTPPYTFGQGTKLEIKR
notes: as for B1
B12: RhD292.109A02 (Fab, V domains shown)
VH: QVQLVETGGGVVQPGRSLRLSCAASGFTFSSYGMHWVRQAPGKGLEWVAVIWSDGSNKYYADSVKGRFTISRDNSRNTLYLQMNSLRAEDTAVFYCAREQGGYSSSWYRRYYYYYMDVWGQGTTVTVSS
VL: B11 VL with L4M, Y32W, K45N, S49F, S53T, R80P, Y83F, T94S, P95S, P96V
notes: as for B1
B13: RhD159.119B09 (Fab, V domains shown)
VH: EVQLVETGGGLVQPGGSLRLSCAASGFSFRSYDMNWVRQAPGKGLEWVSYISGRGSTTYYADSVKGRFTISRDNAKNSLYLQMNSLRAEDTAVYYCARDLYGDYDPKSYYYYAMDVWGHGTTVTVSS
VL: EIVMTQSPGTLSLSPGERATLSCRASHTVSSGYLAWYQQKPGQAPRLLIYGASNRATGVPDRFGGSGSGTDFTLTISRLEPEDSAVYFCQQYGTSPGVTFGQGTRLEIER
notes: as for B1
B14: RhD241.119B05 (Fab, V domains shown)
VH: QVQLQESGPGLVKPSETLSLICTVSGGSISSNYWSWIRQPPGKGLEWIGYIYYSGNTNYNPSLKSRVTISLDTSKNQFSLKLRSVTAADTAVYYCAREWRQYGSGIRGSRYYYGMDVWGQGTLVTVSS
VL: EIVLTQSPVTLSLSPGERATLSCRASQSVSSGYLAWYQQKPGQAPRLLIYGTSIRATGIPDRFSGSGSGTDFTLTISRLEPEDFAVYYCQQYGSSPLYSFGQGTKVDIKR
notes: as for B1
B15: RhD158.119B06 (Fab, V domains shown)
VH: EVQLVETGGGVVQPGRSLRLSCAASGFSFSNFGFHWIRQSPGKGLEWVAVIWYDGSNRFYADSVKGRFTISRDSSKNMLFLQMDSLRAEDTAVYYCAREISMKVVIRRHYVMDVWGHGTTVTVSS
VL: DIQMTQSPSPLSASVGDRVSITCRASRGISNSLAWYQQKPGKVPKLLIYAASTLQSGVPSRFSGGGSGTDFTLTISSLQPEDVATYYCHTYNSAPFAFGPGTKVDIKR
notes: as for B1
B16: RhD244.158B10 (Fab, V domains shown)
VH: QVQLVESGGGVVQPGRSLRLSCAASGFSFSSYGMHWVRQAPGKGLEWVAIIWYDGSNKLYADSVKGRFTISRDNSRNTLYLQMSSVRAEDTAVYYCARDSVRGVSRWGTQKYYAMDVWGQGTTVTVSS
VL: DIQMTQSPSSLSASVGDRVIITCRASQSVNRYLNWYQQKPGKAPKLLIYAASSLQGGVPSRFSGSGSGTDFTLTISSLQREDFATYYCQQSYRTRTFGQGTKVEIKR
notes: as for B1

These binders were tested against T1, Rhesus D antigen (assay: agglutination assay, Fab periplasmic extract on RhD(+)/RhD(-) RBC mix).
Protocol: After each round of panning single colonies were picked for analysis of their binding properties to red blood cells in agglutination assays. Briefly, single colonies were inoculated into 2×YT/100 μg/mL carbenicillin/1% glucose and shaken overnight at 37° C. The next day, DeepWell plates were inoculated using 900 μl 2×YT/100 μg/mL carbenicillin/0.1% glucose and 10 μl overnight culture. The plates were shaken for two hours at 37° C., before Fab induction was performed with addition of 300 μl 2×YT/100 μg/mL carbenicillin/0.25 mM IPTG per well. The plate was shaken overnight at 30° C. The following day, the bacteria were pelleted by centrifugation (3200×g, 4° C., 10 minutes), and re-suspended in 100 μl of 0.8 M NaCl, 0.2×PBS, 8 mM EDTA, and incubated for 15 minutes on ice in order to perform a periplasmic extraction of the Fab fragments. The plate was transferred to −20° C. and finally the suspension was thawed and centrifugation was performed for 10 minutes at 4° C. and 3200×g. The periplasmic extract was used in ELISA assays for analysis of Fab content and in agglutination assays to evaluate the binding potential of the individual Fab fragments.
The agglutination assay was performed as follows: RhD(−) and RhD(+) RBC were mixed in a 1:1 ratio, and washed 3 times in PBS. After the final wash, the cell mix was re-suspended in 1% BSA in PBS at a density of 10% cells, 50 μl was added to each well of a 96-plate. Periplasmic extracts were added to the wells. As a positive control Rhesogamma P immunoglobulin (Aventis) was used according to the manufacturer's instructions. The plates were incubated for one hour at room temperature with gentle shaking. The cells were washed three times with PBS, before the secondary antibody was added (goat anti-human Fab/FITC conjugate, Sigma F5512) in a 1:100 dilution. The plates were left for agglutination for one hour at room temperature without shaking. Fab fragments positive in the agglutination assay was determined by visual inspection, and recorded by taking a picture. Quantization of the binding activity of the Fab fragments was performed by FACS analysis of the agglutination samples.

Row | binding result | Binder
1 | binds | B1
2 | binds | B2
3 | binds | B3
4 | binds | B4
5 | binds | B5
6 | binds | B6
7 | binds | B7
8 | binds | B8
9 | binds | B9
10 | binds | B10
11 | binds | B11
12 | binds | B12
13 | binds | B13
14 | binds | B14
15 | binds | B15
16 | binds | B16
